For 2 molecules, 3'-P IC50 (in vitro IN 3'-processing assay) and ST IC50 (in vitro IN strand transfer assay) results are on record in publication PMC6222646, “HIV-1 Integrase-Targeted Short Peptides Derived from a Viral Protein R Sequence” (Molecules : A Journal of Synthetic Chemistry and Natural …, 2018).

The test addresses HIV-1 integrase (IN) (HIV-1).

Where no end group is shown, it is not given here.

Molecule Ac-FIHFRIG-NH2 [peptide 1c (Ac-FIHFRIG-amide)] displayed a 3'-P IC50 (in vitro IN 3'-processing assay) of 23.5 µM and an ST IC50 (in vitro IN strand transfer assay) of 4.7 µM.
FIHFRIG-NH2 [peptide 1b (FIHFRIG-amide)] displayed a 3'-P IC50 (in vitro IN 3'-processing assay) of 31.5 µM and an ST IC50 (in vitro IN strand transfer assay) of 7.3 µM.
